Laboratory results published in paper PMC9734137 (Cell Discovery, 2022).

B1: aSA3 (VHH)
VHH: QVQLVESGGGLVQPGGSLRLSCAASGFTSDHYALAWFRQAPGKEREGVSCIDSDGNPFYADSVKGRFTGSRDNAKNTVYLQMNSLKLEDTAVYYCAAGLWYGRSLNSFDYDYWGQGTQVTVSS
B2: aRBD-2 (VHH)
VHH: QVQLVESGGGLVQAGGSLRLSCAASGRTYTMGWFRQAPGKEREFVAAMRWSDTDYADSLKGRFTISRDNANNAMYLQMNSLGPEDTAVYYCAAGEAWLARSTHHYDYWGQGTQVTVSS

What was measured:
WT SARS2 RBD [1] = molecular target: T1, WT SARS2 RBD (SARS-CoV-2 Wuhan (MN908947), UniProt P0DTC2); assay: SPR; conditions: both partners purified
T1 construct: not shown: Fc (human IgG1), C-terminal, cleaved

WT SARS2 RBD [2] = molecular target: T1, WT SARS2 RBD; assay: cell-based or functional assay

Binder	Kd (WT SARS2 RBD [1])	IC50, neutralisation of WT SARS2 pseudovirus (blocks RBD-ACE2) (WT SARS2 RBD [2])	binding result (WT SARS2 RBD [1])
B1	0.0519 nM	0.97 nM	–
B2	–	–	binds
